The values below come from US20120264231A1, “ASSAY FOR ORAI CALCIUM CHANNEL REGULATORS” (IMMUNE DISEASE INSTITUTE, INC., priority 2009, published 2012).

The assay has as its target ORAI1 (Homo sapiens, UniProt Q96D31). In words: Cameleon D3 cpV/D4 cpV intravesicular Ca^2+ assay, sec6-4 vesicles with ORAI1. Type of assay: biochemical. Details: the ORAI functional fragment is ORAI1 (65-301), ORAI1 (65-87), or full length ORAI1; made in house; host or cells: S. cerevisiae NY17 (sec6-4), isolated secretory vesicles, vector pBEVY-GU. The method, then:
In complementary measurements, vesicular Ca^2+ was monitored directly by coexpressing ORAI1 with the Ca^2+ sensor D3 cpV or D4 cpV53 fused to the α-mating factor secretion signal to target the sensor to the vesicles. Vesicles that had incorporated ORAI1 were isolated from sec6-4 yeast incubated at the restrictive temperature and were diluted into assay buffer.
Vesicles carrying ORAI 1 were isolated from S cerevisiae strain NY1 7 according to a standard protocol (Coury, L. A., et al., Methods Enzymol 306, 169-186 (1999); Nakamoto, R. K., et al., J Biol Chem 266, 7940-7949 (1991)). Efflux of Ca^2+ elicited by STIM1^CT fragments was detected by suspending the vesicles in a buffer containing Fura-2 as principal Ca^2+ buffer, and monitoring the Fura-2 fluorescence excitation spectrum (Meyer, T., et al., Biochemistry 29, 32-37 (1990)). As a complementary approach, ORAI 1 was coexpressed with a Ca^2+ sensor cameleon D3 cpV or cameleon D4 cpV53 that was targeted to the vesicles, and changes in intravesicular [Ca^2+] were detected as changes in FRET between CFP and YFP of the sensor.
The yeast expression vector pBEVY-GU60 allows for simultaneous expression of two transgenes by means of the bidirectional GAL1-10 promoter. The FRET-based calcium sensors D3 cpV and D4 cpV53 were fused at the N-terminus with the S. cerevisiae α-mating factor secretion signal (Bitter, G. A., et al., Proc Natl Acad Sci USA 81, 5330-5334 (1984)), which directs proteins into the secretory pathway, and introduced into pBEVY-GU in the following way. Vector pPIC9 (Invitrogen) served as template for PCR amplification of the α-mating factor secretion signal (5′ primer: […] (SEQ ID NO: 2); 3′ primer: […] (SEQ ID NO: 3)), introducing an EcoRI site at the 5′ end, and a sequence complementary to that encoding the N-terminus of the calcium sensor at the 3′ end. DNA encoding the N-terminal portion of the calcium sensor D3 cpV, comprising CFP, was amplified by PCR (5′ primer: […] (SEQ ID NO: 4); 3′ primer: […] (SEQ ID NO: 5)), introducing an SphI site followed by a stop codon and a NotI site at the 3′ end of the resulting DNA fragment. PCR-mediated fusion of the fragments representing the α-mating factor secretion signal and the sensor CFP fragment yielded αCFP, which was digested with EcoRI and NotI and subcloned into pSM703. […] Human ORAI1 was Myc-tagged at the N-terminus by PCR (5′ primer: […] (SEQ ID NO: 6); 3′ primer: […] TGGCTGCCGGGC (SEQ ID NO: 7)) and subcloned as an EcoRI-BamHI fragment into pSM703. A fragment containing Myc-ORAI1 was excised from the resulting plasmid by EcoRI digestion, blunt-ended with the Klenow fragment of DNA polymerase I, and cut with AvrII. […]

The mark [1] stands for this setting: STIM 1 cytoplasmic fragments 2 μM.

ORAI1, sequence (Q96D31 2-301): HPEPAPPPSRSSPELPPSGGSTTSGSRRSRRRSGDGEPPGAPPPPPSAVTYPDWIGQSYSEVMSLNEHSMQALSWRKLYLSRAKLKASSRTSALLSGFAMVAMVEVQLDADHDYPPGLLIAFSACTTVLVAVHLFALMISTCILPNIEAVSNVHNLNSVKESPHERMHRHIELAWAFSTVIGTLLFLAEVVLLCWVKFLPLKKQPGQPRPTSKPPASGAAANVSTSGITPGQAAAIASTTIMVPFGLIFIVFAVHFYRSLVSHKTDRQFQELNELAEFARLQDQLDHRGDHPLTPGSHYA

On to “STIM1^CT: cytoplasmic region of STIM1, mouse residues 233-685, His-tagged recombinant protein expressed in E coli”, for which the “fluorescence intensity ratio F528 nm/F475 nm” value (D3 cpV sensor, wildtype ORAI1, STIM^CT 2.6 μM, p<0.001) is “changes the ratio significantly”. In addition, the “vesicular Ca^2+ (cameleon FRET signal)” value under setting [1] is “triggered substantial loss of vesicular Ca^2+”.
With `C[C@H](CCC(=O)O)C[C@H](C)C[C@H](C)C(=O)/C=C(\O)[C@H](C)C[C@H](C)C/C=C/[C@@H](C)[C@@H](O)[C@@H](C)[C@@H](O)C[C@@H]1CC[C@@](C)([C@H]2CC[C@@](C)([C@@H](C)O)O2)O1` [ionomycin, reference compound], where the note is “ionomycin 20 μM”, the “vesicular Ca^2+ (cameleon FRET signal)” value is reported as “depletion of vesicular Ca^2+”.
Turning to “STIM1 (233-498): truncated mouse STIM1 cytoplasmic fragment, residues 233-498, His-tagged recombinant protein”, the “vesicular Ca^2+ (cameleon FRET signal)” value under setting [1] was “triggered substantial loss of vesicular Ca^2+”.
